Data taken from the supplement of paper PMC7125110.
± gives the standard error. For some of these results: This sample holds only a part of the variants without activity.

B1: glmS ribozyme (parent)
chain: AUAAAAGCGCCAGAACUACAGAAAUGUAGUUGACGAGGAGGAGGUUUAUCGAAUUUUCGGCGGAUGCCUCCAAA

How the values were obtained:
Conditions in all cases: with glucosamine-6-phosphate
glucosamine-6-phosphate [1] = variants of: B1; assay: kcat; higher = faster cleavage; RNA array
Procedure, shortened: (§1)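 Barcoded ribozyme variants on sequenced MiSeq chips were transcribed in situ by E. coli RNA polymerase and followed at 37 °C through a hybridised Cy3 probe. Glucosamine-6-phosphate at 40 μM to 10 mM in HEPES/KCl/Mg(OAc)2 buffer was flowed in, and tiles were imaged over ~14 h. Signals were normalised to baseline and to non-cleaving reference variants, and per-tile medians were fit to one- or two-exponential decays to give kobs. Weighted Michaelis–Menten fits across concentrations gave kcat and KM.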

glucosamine-6-phosphate [2] = variants of: B1; assay: KM; higher = weaker cofactor use; RNA array
Procedure, shortened: as §1

glucosamine-6-phosphate [3] = variants of: B1; assay: self-cleavage kobs at 40 uM GlcN6P; higher = faster cleavage; RNA array
Procedure, shortened: as §1

glucosamine-6-phosphate [4] = variants of: B1; assay: self-cleavage kobs at 640 uM GlcN6P; higher = faster cleavage; RNA array
Procedure, shortened: as §1

glucosamine-6-phosphate [5] = variants of: B1; assay: self-cleavage kobs at 2500 uM GlcN6P; higher = faster cleavage; RNA array
Procedure, shortened: as §1

glucosamine-6-phosphate [6] = variants of: B1; assay: self-cleavage kobs at 10000 uM GlcN6P; higher = faster cleavage; RNA array
Procedure, shortened: as §1

glucosamine-6-phosphate [7] = variants of: B1; assay: self-cleavage kobs at 160 uM GlcN6P; higher = faster cleavage; RNA array
Procedure, shortened: as §1

| Variant | kcat (glucosamine-6-phosphate [1]) | KM (glucosamine-6-phosphate [2]) | self-cleavage kobs at 40 uM GlcN6P (glucosamine-6-phosphate [3]) | self-cleavage kobs at 640 uM GlcN6P (glucosamine-6-phosphate [4]) | self-cleavage kobs at 2500 uM GlcN6P (glucosamine-6-phosphate [5]) | self-cleavage kobs at 10000 uM GlcN6P (glucosamine-6-phosphate [6]) | self-cleavage kobs at 160 uM GlcN6P (glucosamine-6-phosphate [7]) |
| --- | --- | --- | --- | --- | --- | --- | --- |
| U46C U54G | 0.00333 ± 0.00031 s⁻¹ | 1370 ± 200 µM | 9.45e-05 ± 1.5e-05 s⁻¹ | 0.000997 ± 0.00031 s⁻¹ | 0.00284 ± 0.00085 s⁻¹ | 0.00287 ± 0.0004 s⁻¹ | – |
| U30C A53G | 0.000411 ± 4.1e-05 s⁻¹ | 2120 ± 440 µM | – | 9.02e-05 ± 1.4e-05 s⁻¹ | 0.000252 ± 3.6e-05 s⁻¹ | 0.000328 ± 3.8e-05 s⁻¹ | – |
| G32U A52G | 8.92e-05 ± 4.7e-06 s⁻¹ | 3490 ± 570 µM | – | – | 3.86e-05 ± 7.8e-06 s⁻¹ | 6.6e-05 ± 5.2e-06 s⁻¹ | – |
| A15C C68U | 0.00105 ± 0.00025 s⁻¹ | 2390 ± 860 µM | – | 0.000191 ± 2.7e-05 s⁻¹ | 0.000847 ± 0.00011 s⁻¹ | 0.000796 ± 8.8e-05 s⁻¹ | 6.98e-05 ± 8.8e-06 s⁻¹ |
| C16A C50A | < 1e-05 s⁻¹ | – | – | – | – | – | – |
| G62U C70G | 1.57e-05 ± 2.7e-06 s⁻¹ | – | – | – | – | – | – |
| C11A C68U | 5.04e-05 ± 2.5e-06 s⁻¹ | 459 ± 170 µM | – | 3.2e-05 ± 1.4e-05 s⁻¹ | 3.54e-05 ± 1.4e-05 s⁻¹ | 4.9e-05 ± 6.3e-06 s⁻¹ | – |
| U45G U69G | 0.000184 ± 5.8e-05 s⁻¹ | – | – | – | – | 0.000152 ± 3.8e-05 s⁻¹ | – |
| G29A U30C | 3.24e-05 ± 8.4e-06 s⁻¹ | – | – | – | 4.91e-05 ± 1.5e-05 s⁻¹ | 2.58e-05 ± 1e-05 s⁻¹ | – |
| U54A U65A | 0.00834 ± 0.0013 s⁻¹ | 4300 ± 1100 µM | 0.000105 ± 2.7e-05 s⁻¹ | 0.00105 ± 0.00019 s⁻¹ | 0.00254 ± 0.00097 s⁻¹ | 0.00595 ± 0.00078 s⁻¹ | – |
| U55G C71A | 0.00224 ± 0.00065 s⁻¹ | 528 ± 220 µM | 0.000162 ± 2.2e-05 s⁻¹ | 0.00113 ± 0.00015 s⁻¹ | 0.00315 ± 0.00085 s⁻¹ | – | 0.000541 ± 0.00013 s⁻¹ |
| U49C U69G | 1.6e-05 ± 5e-06 s⁻¹ | – | – | – | – | – | – |
| A33G C70G | 1.95e-05 ± 6.8e-06 s⁻¹ | – | – | – | – | – | – |
| A14U G29U | 0.000435 ± 4.6e-05 s⁻¹ | 2040 ± 400 µM | 2.02e-05 ± 9.5e-06 s⁻¹ | 0.000104 ± 9.7e-06 s⁻¹ | 0.000222 ± 2e-05 s⁻¹ | 0.000381 ± 3.2e-05 s⁻¹ | 3.57e-05 ± 7.2e-06 s⁻¹ |
| G29A U46C | 0.00025 ± 1.1e-05 s⁻¹ | 1880 ± 160 µM | – | 6.39e-05 ± 2e-05 s⁻¹ | 0.000139 ± 3.1e-05 s⁻¹ | 0.000216 ± 6.1e-05 s⁻¹ | – |
| G32U A64U | < 1e-05 s⁻¹ | – | – | < 1e-05 s⁻¹ | – | – | < 1e-05 s⁻¹ |
| U30G G32C | 0.000158 ± 2.5e-05 s⁻¹ | – | – | – | 0.000149 ± 3e-05 s⁻¹ | 0.000134 ± 1.6e-05 s⁻¹ | – |
| G59U C68G | 2.57e-05 ± 4.8e-06 s⁻¹ | – | – | – | – | – | – |
| A15U | 0.0104 ± 0.0019 s⁻¹ | 1950 ± 440 µM | 0.000227 ± 4e-06 s⁻¹ | 0.00245 ± 8.9e-05 s⁻¹ | 0.00682 ± 0.00026 s⁻¹ | 0.00847 ± 0.00024 s⁻¹ | 0.00061 ± 2.2e-05 s⁻¹ |
